The assay concerns the target T1, FcγRIa (human, UniProt P12314 16-292).
T1 construct: extracellular domain; soluble His-tagged extracellular domain expressed in FreeStyle293 cells, used as analyte in Biacore; also called FcgRI; CD64
Nature of the assay: SPR (Biacore), captured antibody, FcγRIa analyte; relative to GpH7-A5/GpH7-B3/GpL16-k0. (In general: Surface plasmon resonance follows binding to a sensor surface in real time, without labels.)

T1 sequence (P12314 16-292): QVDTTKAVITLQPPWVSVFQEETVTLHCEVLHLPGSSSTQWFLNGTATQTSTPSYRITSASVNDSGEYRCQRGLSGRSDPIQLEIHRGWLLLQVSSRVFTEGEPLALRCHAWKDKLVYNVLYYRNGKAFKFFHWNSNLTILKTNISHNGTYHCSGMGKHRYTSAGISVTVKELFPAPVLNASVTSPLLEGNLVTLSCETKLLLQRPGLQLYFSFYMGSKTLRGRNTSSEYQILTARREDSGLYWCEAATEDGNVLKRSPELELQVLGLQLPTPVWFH

B1: GpH7-A5/GpH7-B3 variant S337_04F/GpL16-k0 (antibody, human IgG1, kappa)
heavy 1: not shown
heavy 2: not shown
light: DIVMTQSPLSLPVTPGEPASISCQASESLVHSNRNTYLHWYLQKPGQSPQLLIYKVSNRFSGVPDRFSGSGSGTDFTLKISRVEAEDVGVYYCSQNTHVPPTFGQGTKVEIERTVAAPSVFIFPPSDEQLKSGTASVVCLLNNFYPREAKVQWKVDNALQSGNSQESVTEQDSKDSTYSLSSTLTLSKADYEKHKVYACEVTHQGLSSPVTKSFNRGEC
notes: heterodimerized IgG1, mutation in one H chain only; also called He Ab
B1: the He/Con_1a is 106 relative, control = 100.

B2: GpH7-A5/GpH7-B3 variant T335_08L/GpL16-k0 (antibody, human IgG1, kappa)
heavy 1: not shown
heavy 2: not shown
light: DIVMTQSPLSLPVTPGEPASISCQASESLVHSNRNTYLHWYLQKPGQSPQLLIYKVSNRFSGVPDRFSGSGSGTDFTLKISRVEAEDVGVYYCSQNTHVPPTFGQGTKVEIERTVAAPSVFIFPPSDEQLKSGTASVVCLLNNFYPREAKVQWKVDNALQSGNSQESVTEQDSKDSTYSLSSTLTLSKADYEKHKVYACEVTHQGLSSPVTKSFNRGEC
notes: as for B1
On to B2, for which the He/Con_1a was 115 relative, control = 100.

B3: GpH7-A5/GpH7-B3 variant S337_08L/GpL16-k0 (antibody, human IgG1, kappa)
heavy 1: not shown
heavy 2: not shown
light: DIVMTQSPLSLPVTPGEPASISCQASESLVHSNRNTYLHWYLQKPGQSPQLLIYKVSNRFSGVPDRFSGSGSGTDFTLKISRVEAEDVGVYYCSQNTHVPPTFGQGTKVEIERTVAAPSVFIFPPSDEQLKSGTASVVCLLNNFYPREAKVQWKVDNALQSGNSQESVTEQDSKDSTYSLSSTLTLSKADYEKHKVYACEVTHQGLSSPVTKSFNRGEC
notes: as for B1
In the case of B3, the He/Con_1a is 105 relative, control = 100.

B4: GpH7-A5/GpH7-B3 variant T335_18N/GpL16-k0 (antibody, human IgG1, kappa)
heavy 1: not shown
heavy 2: not shown
light: DIVMTQSPLSLPVTPGEPASISCQASESLVHSNRNTYLHWYLQKPGQSPQLLIYKVSNRFSGVPDRFSGSGSGTDFTLKISRVEAEDVGVYYCSQNTHVPPTFGQGTKVEIERTVAAPSVFIFPPSDEQLKSGTASVVCLLNNFYPREAKVQWKVDNALQSGNSQESVTEQDSKDSTYSLSSTLTLSKADYEKHKVYACEVTHQGLSSPVTKSFNRGEC
notes: as for B1
Turning to B4, the He/Con_1a is 106 relative, control = 100.

B5: GpH7-A5/GpH7-B3 variant T335_10E/GpL16-k0 (antibody, human IgG1, kappa)
heavy 1: not shown
heavy 2: not shown
light: DIVMTQSPLSLPVTPGEPASISCQASESLVHSNRNTYLHWYLQKPGQSPQLLIYKVSNRFSGVPDRFSGSGSGTDFTLKISRVEAEDVGVYYCSQNTHVPPTFGQGTKVEIERTVAAPSVFIFPPSDEQLKSGTASVVCLLNNFYPREAKVQWKVDNALQSGNSQESVTEQDSKDSTYSLSSTLTLSKADYEKHKVYACEVTHQGLSSPVTKSFNRGEC
notes: as for B1
As for B5, the He/Con_1a was 109 relative, control = 100.

B6: GpH7-A5/GpH7-B3 variant T335_19Q/GpL16-k0 (antibody, human IgG1, kappa)
heavy 1: not shown
heavy 2: not shown
light: DIVMTQSPLSLPVTPGEPASISCQASESLVHSNRNTYLHWYLQKPGQSPQLLIYKVSNRFSGVPDRFSGSGSGTDFTLKISRVEAEDVGVYYCSQNTHVPPTFGQGTKVEIERTVAAPSVFIFPPSDEQLKSGTASVVCLLNNFYPREAKVQWKVDNALQSGNSQESVTEQDSKDSTYSLSSTLTLSKADYEKHKVYACEVTHQGLSSPVTKSFNRGEC
notes: as for B1
On to B6, for which the He/Con_1a is 105 relative, control = 100.

B7: GpH7-A5/GpH7-B3 variant S337_06M/GpL16-k0 (antibody, human IgG1, kappa)
heavy 1: not shown
heavy 2: not shown
light: DIVMTQSPLSLPVTPGEPASISCQASESLVHSNRNTYLHWYLQKPGQSPQLLIYKVSNRFSGVPDRFSGSGSGTDFTLKISRVEAEDVGVYYCSQNTHVPPTFGQGTKVEIERTVAAPSVFIFPPSDEQLKSGTASVVCLLNNFYPREAKVQWKVDNALQSGNSQESVTEQDSKDSTYSLSSTLTLSKADYEKHKVYACEVTHQGLSSPVTKSFNRGEC
notes: as for B1
Turning to B7, the He/Con_1a was 107 relative, control = 100.

B8: GpH7-A5/GpH7-B3 variant S337_10E/GpL16-k0 (antibody, human IgG1, kappa)
heavy 1: not shown
heavy 2: not shown
light: DIVMTQSPLSLPVTPGEPASISCQASESLVHSNRNTYLHWYLQKPGQSPQLLIYKVSNRFSGVPDRFSGSGSGTDFTLKISRVEAEDVGVYYCSQNTHVPPTFGQGTKVEIERTVAAPSVFIFPPSDEQLKSGTASVVCLLNNFYPREAKVQWKVDNALQSGNSQESVTEQDSKDSTYSLSSTLTLSKADYEKHKVYACEVTHQGLSSPVTKSFNRGEC
notes: as for B1
For B8, the He/Con_1a was 106 relative, control = 100.

B9: GpH7-A5/GpH7-B3 variant T335_20W/GpL16-k0 (antibody, human IgG1, kappa)
heavy 1: not shown
heavy 2: not shown
light: DIVMTQSPLSLPVTPGEPASISCQASESLVHSNRNTYLHWYLQKPGQSPQLLIYKVSNRFSGVPDRFSGSGSGTDFTLKISRVEAEDVGVYYCSQNTHVPPTFGQGTKVEIERTVAAPSVFIFPPSDEQLKSGTASVVCLLNNFYPREAKVQWKVDNALQSGNSQESVTEQDSKDSTYSLSSTLTLSKADYEKHKVYACEVTHQGLSSPVTKSFNRGEC
notes: as for B1
Turning to B9, the He/Con_1a was 106 relative, control = 100.

B10: GpH7-A5/GpH7-B3 variant T335_16H/GpL16-k0 (antibody, human IgG1, kappa)
heavy 1: not shown
heavy 2: not shown
light: DIVMTQSPLSLPVTPGEPASISCQASESLVHSNRNTYLHWYLQKPGQSPQLLIYKVSNRFSGVPDRFSGSGSGTDFTLKISRVEAEDVGVYYCSQNTHVPPTFGQGTKVEIERTVAAPSVFIFPPSDEQLKSGTASVVCLLNNFYPREAKVQWKVDNALQSGNSQESVTEQDSKDSTYSLSSTLTLSKADYEKHKVYACEVTHQGLSSPVTKSFNRGEC
notes: as for B1
Consider B10, for which the He/Con_1a is 106 relative, control = 100.

B11: GpH7-A5/GpH7-B3 variant S337_20W/GpL16-k0 (antibody, human IgG1, kappa)
heavy 1: not shown
heavy 2: not shown
light: DIVMTQSPLSLPVTPGEPASISCQASESLVHSNRNTYLHWYLQKPGQSPQLLIYKVSNRFSGVPDRFSGSGSGTDFTLKISRVEAEDVGVYYCSQNTHVPPTFGQGTKVEIERTVAAPSVFIFPPSDEQLKSGTASVVCLLNNFYPREAKVQWKVDNALQSGNSQESVTEQDSKDSTYSLSSTLTLSKADYEKHKVYACEVTHQGLSSPVTKSFNRGEC
notes: as for B1
As for B11, the He/Con_1a is 105 relative, control = 100.

Source of the values: patent US20150344570A1 (published 2015).
